Measurements published in patent US20170210810A1, “BIOMARKER PROFILES FOR PREDICTING OUTCOMES OF CANCER THERAPY WITH ERBB3 INHIBITORS AND/OR CHEMOTHERAPIES” (Merrimack Pharmaceuticals, Inc., priority 2013, published 2017).

Assays:
[1] = tested on: EGFR-wild-type non-small cell lung cancer (NSCLC)
Description: A group participating in the study was comprised of 132 patients with wild-type epidermal growth factor receptor (EGFR) who progressed on ≧1 platinum-based standard of care therapy and were EGFR tyrosine kinase inhibitor (TKI)-naïve. […] Data were collected at 10+ months.
BM+ patients were defined as having detectable HRG mRNA by RNA-ISH (RNA in situ hybridization) as described above in Example 1.

[2] = cited from earlier work
[3] = tested on: locally advanced or metastatic ER+ and/or PR+, HER2 negative breast cancer; assay: Randomized, double-blind phase 2 trial of exemestane +/- MM-121 in breast cancer (Example 6)
Description: This population is for safety analyses, as well as the primary population for all efficacy parameters.
Analyses were performed on the five pre-specified primary biomarkers, all mechanistically linked to ErbB3 signaling, as measured in FFPE archived tissue blocks. Biomarkers were assessed based on local HR scans. Thresholds for defining biomarker profile positive populations were chosen based on these scans and on results obtained in the above-described ovarian cancer trial. A single two-variable model was assessed using HRG and ErbB2, based on the findings from the above-described ovarian cancer trial. HRs in the biomarker profile positive and negative populations were calculated using a Cox proportional hazard model that included biomarker groups by treatment and stratification factors as additive factors. Only patients with non-missing biomarkers were used in each calculation.
Both assays were performed using FFPE archived tissue blocks.
Biomarker profile positive (BM+) and biomarker profile negative (BM−) subpopulations were defined by dichotomizing biomarker values for HRG and ErbB2. For HRG, a cut point of −5 (RT-PCR score) was chosen based on the local HR scan (value at which HR=1). […] Two separate analyses of ErbB2 levels are provided: (1) ErbB2 levels based on the qIHC assay; and (2) for patients where qIHC data are missing, but HCT results were available, ErbB2 levels were adapted from the reported HCT results, with a score of HCT 2+ being deemed equal to log10(ErbB2)=5.1.
All efficacy analyses for the BM subgroups were performed using a Cox proportional hazard model that included both of the pre-specified strata as additive effects in combination with the treatment effect. The ErbB2 low & HRG high BM+ subpopulation was defined as patients with log10(ErbB2)≦5.1 and HRG RT-PCR>−5.

[4] = tested on: advanced, platinum-resistant ovarian cancer; assay: Clinical trial in ovarian cancer: paclitaxel with or without MM-121 (Example 5); format: in vivo, human
Description: A clinical trial was performed that was designed to allow, inter alia, determination of associations between biomarker profiles and clinical responses. Biomarker data were measured in pre-treatment biopsies and (when available) in archived tumor samples. Results pertaining to predictive biomarkers measured in pre-treatment biopsies are described herein.
In total, six primary biomarkers were measured using 15 assays. For the 5 chromogenic assays (qIHC and RNA-ISH), two different overall scores were used: composite score and top-10 score. Accordingly, 20 different variables were assessed at this stage. A Cox proportional hazard model was used to rank the biomarkers. This method determines if PFS varies with biomarker values differently in the treatment arm relative to the control arm. A P-value cutoff of 0.4 was used to determine which biomarkers would be prioritized for subsequent bivariate analyses.
Based on these two thresholds, a biomarker profile positive (BM+) subpopulation is defined for subsequent analyses as: (ErbB2 levels≦log10 5.1) AND (HRG score≧1) (“ErbB2 low” AND “HRG positive”). Accordingly, a biomarker profile negative (BM−) subpopulation is defined as (ErbB2 levels >log10 5.1) OR (HRG score<1) This definition results in a BM+ prevalence of 34% in the clinical trial population.
In FIG. 8G (progression free survival at 10+ months) and FIG. 8H (overall survival at 10+ months), the treatment arm is represented by a blue line and the control arm is represented by a black line.

[5] = best overall response, BM+ (heregulin+) as worded in FIG. 11 legend
[6] = safety population, count (percentage)

Question: With `C#Cc1cccc(Nc2ncnc3cc(OCCOC)c(OCCOC)cc23)c1` [erlotinib] as the molecule, how does the “complete response (CR)” value [1, 5] read?
Answer: none

Question: And the “partial response (PR)” value [1, 5]?
Answer: 6.7%

Question: And the “progressive disease (PD)” value [1, 5]?
Answer: 53.3%

Question: What about the “PFS of BM− (heregulin−) patients compared with BM+ (heregulin+) patients” value ([1]; patients treated with erlotinib alone (FIG. 12C)) of the same molecule?
Answer: much longer

Question: Which results are given for `C=C1C[C@@H]2[C@H](CC[C@]3(C)C(=O)CC[C@@H]23)[C@@]2(C)C=CC(=O)C=C12` [exemestane, 6-methylenandrosta-1,4-diene-3,17-dione, reference compound]?
Answer: solubility in N,N-dimethylformamide ([2]; N,N-dimethylformamide): freely soluble; solubility in methanol ([2]; methanol): soluble; solubility in water ([2]; water): practically insoluble; objective response rate ([3]; BM+ patients): 0%; objective response rate ([3]; BM− patients): 5.9%; time within which all treated patients exhibited disease progression ([3]; biomarker profile positive tumors (FIG. 10B)): ≤ 20 weeks; PFS of BM− (heregulin−) patients compared with BM+ (heregulin+) patients ([3]; patients treated with exemestane alone (FIG. 10E)): much longer; Subjects with CTCAE grade 3 or higher TEAE [3, 6]: 15 ( 25.4); Subjects with TEAE leading to death [3, 6]: 1 ( 1.7); Subjects with TEAE leading to dose discontinuation [3, 6]: 0; Subjects with TEAE related to study drug (a) [3, 6]: 32 ( 54.2); Subjects with at least one AE [3, 6]: 51 ( 86.4); Subjects with at least one TEAE [3, 6]: 50 ( 84.7); Subjects with serious TEAE [3, 6]: 11 ( 18.6)

Question: With `CC(=O)O[C@H]1C(=O)[C@@]2(C)[C@H]([C@H](OC(=O)c3ccccc3)[C@]3(O)C[C@H](OC(=O)[C@H](O)[C@@H](NC(=O)c4ccccc4)c4ccccc4)C(C)=C1C3(C)C)[C@]1(OC(C)=O)CO[C@@H]1C[C@@H]2O` [paclitaxel, Paclitaxel, reference compound] as the molecule, how does the “PFS of BM− (heregulin−) patients compared with BM+ (heregulin+) patients” value ([4]; patients treated with paclitaxel alone (FIG. 8I)) read?
Answer: much longer

B1: MM-121: anti-ErbB3 monoclonal antibody having VH and VL sequences as shown in SEQ ID NOs: 1 and 2 (antibody, V domains shown)
VH: EVQLLESGGGLVQPGGSLRLSCAASGFTFSHYVMAWVRQAPGKGLEWVSSISSSGGWTLYADSVKGRFTISRDNSKNTLYLQMNSLRAEDTAVYYCTRGLKMATIFDYWGQGTLVTVSS
VL: QSALTQPASVSGSPGQSITISCTGTSSDVGSYNVVSWYQQHPGKAPKLIIYEVSQRPSGVSNRFSGSKSGNTASLTISGLQTEDEADYYCCSYAGSSIFVIFGGGTKVTVL
Question: For B1, which “HR (trt:ctrl)” value ([4]; BM+, subgroup ErbB3 score ≧2) is on record?
Answer: 0.33

Question: And the “HR (trt:ctrl)” value ([4]; BM+, subgroup ErbB4 score 0)?
Answer: 0.13

Question: And the “HR (trt:ctrl)” value ([4]; BM−, subgroup ErbB4 score ≧1)?
Answer: 2.20

Question: What about the “cumulative HR” value ([4]; patients with detectable levels of HRG and low levels of ErbB2) of the same molecule?
Answer: < 0.5

Question: What about the “PFS versus erlotinib alone” value ([1]; unselected overall population (FIG. 12A)) of the same molecule?
Answer: overall better outcomes

Question: And the HR ([3]; Group ErbB2 < 5.1 (HCT), BM negative)?
Answer: 3.00

Question: And the HR ([3]; Group ErbB2 < 5.1 (HCT), BM population)?
Answer: 0.82

Question: What about the HR ([3]; Group ErbB2 < 5.1 (HCT), BM positive) of the same molecule?
Answer: 0.62

Question: And the HR ([3]; Group ErbB2 < 5.1 (qIHC) & HRG > −5, BM negative)?
Answer: 1.30

Question: And the HR ([3]; Group ErbB2 < 5.1 (qIHC) & HRG > −5, BM population)?
Answer: 0.86

Question: What about the HR ([3]; Group ErbB2 < 5.1 (qIHC) & HRG > −5, BM positive) of the same molecule?
Answer: 0.32

Question: And the HR ([3]; Group ErbB2 < 5.1 (qIHC), BM negative)?
Answer: 3.00

Question: And the HR ([3]; Group ErbB2 < 5.1 (qIHC), BM population)?
Answer: 1.16

Question: What about the HR ([3]; Group ErbB2 < 5.1 (qIHC), BM positive) of the same molecule?
Answer: 0.84

Question: And the HR ([3]; Group HRG > −5, BM negative)?
Answer: 0.99

Question: What about the HR ([3]; Group HRG > −5, BM population) of the same molecule?
Answer: 0.68

Question: What about the HR ([3]; Group HRG > −5, BM positive) of the same molecule?
Answer: 0.35

Question: What about the “benefit (PFS) from adding MM-121 to exemestane therapy” value ([3]; biomarker negative patient population (FIG. 10A)) of the same molecule?
Answer: little if any benefit

Question: What about the “benefit (PFS) from adding MM-121 to exemestane therapy” value ([3]; biomarker positive population (FIG. 10B)) of the same molecule?
Answer: dramatic benefit

Question: What about the “decrease in risk of death” value ([3]; full patient population, overall survival, vs standard-of-care arm) of the same molecule?
Answer: 59%

Question: And the “decrease in risk of progression” value ([3]; heregulin-positive patients, n=34, final analysis)?
Answer: 74%

Question: What about the HR ([3]; no selection, BM population N=115) of the same molecule?
Answer: 0.75
